Key:
Type in all cases: biochemical
[1] = tested on: single-stranded DNA initiator (SEQ ID NO: 7); experiment: Addition of 3′-O-azidomethyl nucleotide triphosphates to a DNA initiator by TdT orthologs, capillary electrophoresis; details: for ability to add 3′-O reversibly terminated (blocked) nucleotide triphosphates: 3′-O-azidomethyl nucleotide triphosphate, FIG. 3; for performance in adding 3′-O-azidomethyl dTTP and 3′-O-azidomethyl dCTP compared to Bos taurus TdT: 20 min, capillary electrophoresis
Method: (A) A single-stranded DNA initiator was incubated with TdT with the indicated species for 60 min in the above mentioned buffer and reaction conditions. Reactions were then analysed by capillary electrophoresis and a subset of chromatograms are shown. (B) Fraction of DNA initiator strand converted to N+1 species (addition of 3′-O-azidomethyl dTTP) in one hour. (C) Three TdT orthologs were reacted with 3′-O-azidomethyl dTTP and 3′-O-azidomethyl dCTP for 20 min.
A single-stranded DNA initiator (SEQ ID NO: 7) was incubated with purified, recombinant TdT orthologs, required salts (50 mM potassium acetate, 20 mM tris acetate pH 7.9, 1.5 mM cobalt chloride, Saccharomyces cerevisiae inorganic pyrophosphatase), and 3′-O-azidomethyl dTTP at 37° C. for 60 min. The 3′-blocked nucleotide triphosphate was at a concentration of 1 mM and the DNA initiator at 200 nM and analysed via capillary electrophoresis as shown in FIG. 3(A).
The experiment was repeated with the exception that both 3′-O-azidomethyl dTTP and 3′-O-azidomethyl dCTP was used as the 3′-blocked nucleotide triphosphate. The reaction was stopped after 20 min and analysed via capillary electrophoresis.

[2] = tested on: single-stranded DNA initiator (SEQ ID NO: 7); experiment: Engineered versus wild-type Lepisosteus oculatus TdT, addition of 3′-reversibly blocked dNTP measured by PAGE; details: 3′-reversibly blocked dCTP, dGTP or dTTP, 1 mM, 37° C., 20 min
Method: Addition of the dNTP was measured by PAGE and the conversion relative to wild-type TdT was plotted.
A single-stranded DNA initiator (SEQ ID NO: 7) was incubated with either a purified wild-type Lepisosteus oculatus TdT or a purified, recombinant engineered form of Lepisosteus oculatus TdT (SEQ ID NO: 8), required salts, cobalt chloride, Saccharomyces cerevisiae inorganic pyrophosphatase, and 3′-O-azidomethyl dTTP at 37° C. for 20 min.

[3] = tested on: single-stranded DNA initiator (SEQ ID NO: 7); experiment: Engineered Lepisosteus oculatus TdT versus Bos taurus TdT, denaturing PAGE gel; details: 3′-O-azidomethyl dTTP, 37° C., 10 min
Method: A single-stranded DNA initiator (SEQ ID NO: 7) was incubated with a purified, recombinant engineered form of Lepisosteus oculatus TdT, required salts, cobalt chloride, Saccharomyces cerevisiae inorganic pyrophosphatase, and 3′-O-azidomethyl dTTP at 37° C. for 10 min.

B1: Bos taurus TdT: commercially available terminal deoxynucleotidyl transferase from Bos taurus (UniProt: P06526) (protein, listed as Bos taurus)
chain: MDPLCTASSGPRKKRPRQVGASMASPPHDIKFQNLVLFILEKKMGTTRRNFLMELARRKGFRVENELSDSVTHIVAENNSGSEVLEWLQVQNIRASSQLELLDVSWLIESMGAGKPVEITGKHQLVVRTDYSATPNPGFQKTPPLAVKKISQYACQRKTTLNNYNHIFTDAFEILAENSEFKENEVSYVTFMRAASVLKSLPFTIISMKDTEGIPCLGDKVKCIIEEIIEDGESSEVKAVLNDERYQSFKLFTSVFGVGLKTSEKWFRMGFRSLSKIMSDKTLKFTKMQKAGFLYYEDLVSCVTRAEAEAVGVLVKEAVWAFLPDAFVTMTGGFRRGKKIGHDVDFLITSPGSAEDEEQLLPKVINLWEKKGLLLYYDLVESTFEKFKLPSRQVDTLDHFQKCFLILKLHHQRVDSSKSNQQEGKTWKAIRVDLVMCPYENRAFALLGWTGSRQFERDIRRYATHERKMMLDNHALYDKTKRVFLKAESEEEIFAHLGLDYIEPWERNA
[1]
  ability to add 3′-O reversibly terminated (blocked) nucleotide triphosphates: only efficiently adds irreversibly blocked nucleotides
[1]; listed as recombinant TdT sourced from calf thymus
  ability to add 3′-O reversibly terminated (blocked) nucleotide triphosphates: unable to add 3′-O-terminated nucleotide triphosphates in a quantitative fashion

B2: engineered variant (SEQ ID NO: 8): variant of SEQ ID NO: 2 engineered for improved activity by alteration of the amino acid sequence (protein)
chain: MLHIPIFPPIKKRQKLPESRNSCKYEVKFSEVAIFLVERKMGSSRRKFLTNLARSKGFRIEDVLSDAVTHVVAENNSADELLQWLQNSSLGDLSKIEVLDISWFTECMGAGKPVQVEARHCLVKSCPVIDQYLEPSTVETVSQYACQRRTTMENHNQIFTDAFAILAENAEFNESEGPCLAFMRAASLLKSLPHAISSSKDLEGLPCLGDQTKAVIEDILEYGQCSKVQDVLCDDRYQTIKLFTSVFGVGLRTAEKWYRKGFHSLEEVQADNAIHFTKMQKAGFLYYDDISAAVCKAEAQAIGQIVEETVRLIAPDAIVTLTGGFRRGKECGHDVDFLITTPEMGKEVWLLNRLINRLQNQGILLYYDIVESTFDKTRLPCRKFEAMDHFQKCFAIIKLKKELAAGRVQKDWKAIRVDFVAPPVDNFAFALLGWTGSRQFERDLRRFARHERKMLLDNHALYDKTKKIFLPAKTEEDIFAHLGLDYIDPWQRNA
[2]
  conversion of initiator strand of length n to n+1 versus wild-type Lepisosteus oculatus TdT: improved ability to convert the initiator strand of length n to a strand of length n+1
[3]
  incorporation of 3′-reversibly blocked nucleotides versus Bos Taurus TdT: much better than Bos Taurus TdT
  incorporation of 3′-reversibly blocked nucleotides versus wild-type Lepisosteus oculatus TdT: better than the wild-type Lepisosteus oculatus TdT

B3: Lepisosteus oculatus TdT: terminal deoxynucleotidyl transferase sequence from Lepisosteus oculatus (UniProt: W5MK82) (protein, listed as Lepisosteus oculatus)
chain: MLHIPIFPPIKKRQKLPESRNSCKYEVKFSEVAIFLVERKMGSSRRKFLTNLARSKGFRIEDVLSDAVTHVVAEDNSADELWQWLQNSSLGDLSKIEVLDISWFTECMGAGKPVQVEARHCLVKSCPVIDQYLEPSTVETVSQYACQRRTTMENHNQIFTDAFAILAENAEFNESEGPCLAFMRAASLLKSLPHAISSSKDLEGLPCLGDQTKAVIEDILEYGQCSKVQDVLCDDRYQTIKLFTSVFGVGLKTAEKWYRKGFHSLEEVQADNAIHFTKMQKAGFLYYDDISAAVCKAEAQAIGQIVEETVRLIAPDAIVTLTGGFRRGKECGHDVDFLITTPEMGKEVWLLNRLINRLQNQGILLYYDIVESTFDKTRLPCRKFEAMDHFQKCFAIIKLKKELAAGRVQKDWKAIRVDFVAPPVDNFAFALLGWTGSRQFERDLRRFARHERKMLLDNHALYDKTKKYLKKKTTNNYLALNDVCSDLSEWHYKG
[1]
  performance in adding 3′-O-azidomethyl dTTP and 3′-O-azidomethyl dCTP compared to Bos taurus TdT: consistently perform better compared to Bos taurus TdT

B4: Sarcophilus harrisii TdT: terminal deoxynucleotidyl transferase sequence from Sarcophilus harrisii (UniProt: G3VQ55) (protein, listed as Sarcophilus harrisii)
chain: MHRIRTTDSDHGKKRQKKMDAISSKLYEIKFHEFVLFILEKKMGATRRTFLMDLARKKGFRVESELSNSVTHIVAENNSGSDVLAWLEAHKLETTAHFELLDVSWLIECMKVGKPVDTKGKYQLVESSIASANPDPNEGMLKIQSPAMNAISPYACQRRTTLNNHNQRFTDAFEILAKNYEFRENHGHCLTFLRATSVLKCLPFAIVSMKDAEGLPWIGDEVKGIMEEIIEDGQSLEVQAVLNDERYQAFKLFTSVFGVGLKTAEKWYRMGFRTLSKIQSDKSLKFTKMQKAGFLYYEDLISCVSKAEADAVSLIVKEAVWTFLPDALITITGGFRRGKEFGHDVDFLITSPGGEKEQVDQLLQKVTNLWEKQGLLLYYDLMESTFEDLKLPSRKVDALDHFQKCFLILKLYCQRGDRSKWEGPEGSNGLQTKNWKAIRVDLVVCPYDRYAYALLGWSGSRQFERDLRRYATHEKKMMLDNHALYDKTKRTFLKAESEEEIFSHLGLEYIEPWERNA
[1]
  performance in adding 3′-O-azidomethyl dTTP and 3′-O-azidomethyl dCTP compared to Bos taurus TdT: consistently perform better compared to Bos taurus TdT

Source: patent US11807887B2, “Compositions and methods related to nucleic acid synthesis” (Nuclera Ltd., priority 2015, dated 2023)
